PMC4342579, “A new cytoplasmic interaction between junctin and ryanodine receptor Ca^2+ release channels” (Journal of Cell Science, 2015)
Blank lines part the entries; values can stand above or below the molecule they belong to. Ends that are not written are not given here. * marks the point of attachment. Biotin = O=C1N[C@H]2[C@H](CS[C@H]2CCCCC(=O)*)N1

Tests used:
[1] = biological target: RyR1 purified from rabbit skeletal muscle (rabbit) (UniProt P11716)
[2] = biological target: RyR1 purified from rabbit skeletal muscle (rabbit) (UniProt P11716); remark: listed apart in the source
[3] = biological target: T1, RyR1 purified from rabbit skeletal muscle (rabbit, UniProt P11716 1-5037); assay: pull-down; affinity chromatography: biotinylated canine KEKE peptide on streptavidin–agarose, purified RyR1 or RyR2; settings: both partners purified
T1 construct: ryanodine receptor 1 (RyR1), rabbit skeletal muscle, purified from SR vesicles; Purification as in Wei et al., 2009b; also called skeletal RyR1; purified RyR1; source: purified from rabbit skeletal SR vesicles (sucrose gradient)
T1 sequence (P11716 whole entry): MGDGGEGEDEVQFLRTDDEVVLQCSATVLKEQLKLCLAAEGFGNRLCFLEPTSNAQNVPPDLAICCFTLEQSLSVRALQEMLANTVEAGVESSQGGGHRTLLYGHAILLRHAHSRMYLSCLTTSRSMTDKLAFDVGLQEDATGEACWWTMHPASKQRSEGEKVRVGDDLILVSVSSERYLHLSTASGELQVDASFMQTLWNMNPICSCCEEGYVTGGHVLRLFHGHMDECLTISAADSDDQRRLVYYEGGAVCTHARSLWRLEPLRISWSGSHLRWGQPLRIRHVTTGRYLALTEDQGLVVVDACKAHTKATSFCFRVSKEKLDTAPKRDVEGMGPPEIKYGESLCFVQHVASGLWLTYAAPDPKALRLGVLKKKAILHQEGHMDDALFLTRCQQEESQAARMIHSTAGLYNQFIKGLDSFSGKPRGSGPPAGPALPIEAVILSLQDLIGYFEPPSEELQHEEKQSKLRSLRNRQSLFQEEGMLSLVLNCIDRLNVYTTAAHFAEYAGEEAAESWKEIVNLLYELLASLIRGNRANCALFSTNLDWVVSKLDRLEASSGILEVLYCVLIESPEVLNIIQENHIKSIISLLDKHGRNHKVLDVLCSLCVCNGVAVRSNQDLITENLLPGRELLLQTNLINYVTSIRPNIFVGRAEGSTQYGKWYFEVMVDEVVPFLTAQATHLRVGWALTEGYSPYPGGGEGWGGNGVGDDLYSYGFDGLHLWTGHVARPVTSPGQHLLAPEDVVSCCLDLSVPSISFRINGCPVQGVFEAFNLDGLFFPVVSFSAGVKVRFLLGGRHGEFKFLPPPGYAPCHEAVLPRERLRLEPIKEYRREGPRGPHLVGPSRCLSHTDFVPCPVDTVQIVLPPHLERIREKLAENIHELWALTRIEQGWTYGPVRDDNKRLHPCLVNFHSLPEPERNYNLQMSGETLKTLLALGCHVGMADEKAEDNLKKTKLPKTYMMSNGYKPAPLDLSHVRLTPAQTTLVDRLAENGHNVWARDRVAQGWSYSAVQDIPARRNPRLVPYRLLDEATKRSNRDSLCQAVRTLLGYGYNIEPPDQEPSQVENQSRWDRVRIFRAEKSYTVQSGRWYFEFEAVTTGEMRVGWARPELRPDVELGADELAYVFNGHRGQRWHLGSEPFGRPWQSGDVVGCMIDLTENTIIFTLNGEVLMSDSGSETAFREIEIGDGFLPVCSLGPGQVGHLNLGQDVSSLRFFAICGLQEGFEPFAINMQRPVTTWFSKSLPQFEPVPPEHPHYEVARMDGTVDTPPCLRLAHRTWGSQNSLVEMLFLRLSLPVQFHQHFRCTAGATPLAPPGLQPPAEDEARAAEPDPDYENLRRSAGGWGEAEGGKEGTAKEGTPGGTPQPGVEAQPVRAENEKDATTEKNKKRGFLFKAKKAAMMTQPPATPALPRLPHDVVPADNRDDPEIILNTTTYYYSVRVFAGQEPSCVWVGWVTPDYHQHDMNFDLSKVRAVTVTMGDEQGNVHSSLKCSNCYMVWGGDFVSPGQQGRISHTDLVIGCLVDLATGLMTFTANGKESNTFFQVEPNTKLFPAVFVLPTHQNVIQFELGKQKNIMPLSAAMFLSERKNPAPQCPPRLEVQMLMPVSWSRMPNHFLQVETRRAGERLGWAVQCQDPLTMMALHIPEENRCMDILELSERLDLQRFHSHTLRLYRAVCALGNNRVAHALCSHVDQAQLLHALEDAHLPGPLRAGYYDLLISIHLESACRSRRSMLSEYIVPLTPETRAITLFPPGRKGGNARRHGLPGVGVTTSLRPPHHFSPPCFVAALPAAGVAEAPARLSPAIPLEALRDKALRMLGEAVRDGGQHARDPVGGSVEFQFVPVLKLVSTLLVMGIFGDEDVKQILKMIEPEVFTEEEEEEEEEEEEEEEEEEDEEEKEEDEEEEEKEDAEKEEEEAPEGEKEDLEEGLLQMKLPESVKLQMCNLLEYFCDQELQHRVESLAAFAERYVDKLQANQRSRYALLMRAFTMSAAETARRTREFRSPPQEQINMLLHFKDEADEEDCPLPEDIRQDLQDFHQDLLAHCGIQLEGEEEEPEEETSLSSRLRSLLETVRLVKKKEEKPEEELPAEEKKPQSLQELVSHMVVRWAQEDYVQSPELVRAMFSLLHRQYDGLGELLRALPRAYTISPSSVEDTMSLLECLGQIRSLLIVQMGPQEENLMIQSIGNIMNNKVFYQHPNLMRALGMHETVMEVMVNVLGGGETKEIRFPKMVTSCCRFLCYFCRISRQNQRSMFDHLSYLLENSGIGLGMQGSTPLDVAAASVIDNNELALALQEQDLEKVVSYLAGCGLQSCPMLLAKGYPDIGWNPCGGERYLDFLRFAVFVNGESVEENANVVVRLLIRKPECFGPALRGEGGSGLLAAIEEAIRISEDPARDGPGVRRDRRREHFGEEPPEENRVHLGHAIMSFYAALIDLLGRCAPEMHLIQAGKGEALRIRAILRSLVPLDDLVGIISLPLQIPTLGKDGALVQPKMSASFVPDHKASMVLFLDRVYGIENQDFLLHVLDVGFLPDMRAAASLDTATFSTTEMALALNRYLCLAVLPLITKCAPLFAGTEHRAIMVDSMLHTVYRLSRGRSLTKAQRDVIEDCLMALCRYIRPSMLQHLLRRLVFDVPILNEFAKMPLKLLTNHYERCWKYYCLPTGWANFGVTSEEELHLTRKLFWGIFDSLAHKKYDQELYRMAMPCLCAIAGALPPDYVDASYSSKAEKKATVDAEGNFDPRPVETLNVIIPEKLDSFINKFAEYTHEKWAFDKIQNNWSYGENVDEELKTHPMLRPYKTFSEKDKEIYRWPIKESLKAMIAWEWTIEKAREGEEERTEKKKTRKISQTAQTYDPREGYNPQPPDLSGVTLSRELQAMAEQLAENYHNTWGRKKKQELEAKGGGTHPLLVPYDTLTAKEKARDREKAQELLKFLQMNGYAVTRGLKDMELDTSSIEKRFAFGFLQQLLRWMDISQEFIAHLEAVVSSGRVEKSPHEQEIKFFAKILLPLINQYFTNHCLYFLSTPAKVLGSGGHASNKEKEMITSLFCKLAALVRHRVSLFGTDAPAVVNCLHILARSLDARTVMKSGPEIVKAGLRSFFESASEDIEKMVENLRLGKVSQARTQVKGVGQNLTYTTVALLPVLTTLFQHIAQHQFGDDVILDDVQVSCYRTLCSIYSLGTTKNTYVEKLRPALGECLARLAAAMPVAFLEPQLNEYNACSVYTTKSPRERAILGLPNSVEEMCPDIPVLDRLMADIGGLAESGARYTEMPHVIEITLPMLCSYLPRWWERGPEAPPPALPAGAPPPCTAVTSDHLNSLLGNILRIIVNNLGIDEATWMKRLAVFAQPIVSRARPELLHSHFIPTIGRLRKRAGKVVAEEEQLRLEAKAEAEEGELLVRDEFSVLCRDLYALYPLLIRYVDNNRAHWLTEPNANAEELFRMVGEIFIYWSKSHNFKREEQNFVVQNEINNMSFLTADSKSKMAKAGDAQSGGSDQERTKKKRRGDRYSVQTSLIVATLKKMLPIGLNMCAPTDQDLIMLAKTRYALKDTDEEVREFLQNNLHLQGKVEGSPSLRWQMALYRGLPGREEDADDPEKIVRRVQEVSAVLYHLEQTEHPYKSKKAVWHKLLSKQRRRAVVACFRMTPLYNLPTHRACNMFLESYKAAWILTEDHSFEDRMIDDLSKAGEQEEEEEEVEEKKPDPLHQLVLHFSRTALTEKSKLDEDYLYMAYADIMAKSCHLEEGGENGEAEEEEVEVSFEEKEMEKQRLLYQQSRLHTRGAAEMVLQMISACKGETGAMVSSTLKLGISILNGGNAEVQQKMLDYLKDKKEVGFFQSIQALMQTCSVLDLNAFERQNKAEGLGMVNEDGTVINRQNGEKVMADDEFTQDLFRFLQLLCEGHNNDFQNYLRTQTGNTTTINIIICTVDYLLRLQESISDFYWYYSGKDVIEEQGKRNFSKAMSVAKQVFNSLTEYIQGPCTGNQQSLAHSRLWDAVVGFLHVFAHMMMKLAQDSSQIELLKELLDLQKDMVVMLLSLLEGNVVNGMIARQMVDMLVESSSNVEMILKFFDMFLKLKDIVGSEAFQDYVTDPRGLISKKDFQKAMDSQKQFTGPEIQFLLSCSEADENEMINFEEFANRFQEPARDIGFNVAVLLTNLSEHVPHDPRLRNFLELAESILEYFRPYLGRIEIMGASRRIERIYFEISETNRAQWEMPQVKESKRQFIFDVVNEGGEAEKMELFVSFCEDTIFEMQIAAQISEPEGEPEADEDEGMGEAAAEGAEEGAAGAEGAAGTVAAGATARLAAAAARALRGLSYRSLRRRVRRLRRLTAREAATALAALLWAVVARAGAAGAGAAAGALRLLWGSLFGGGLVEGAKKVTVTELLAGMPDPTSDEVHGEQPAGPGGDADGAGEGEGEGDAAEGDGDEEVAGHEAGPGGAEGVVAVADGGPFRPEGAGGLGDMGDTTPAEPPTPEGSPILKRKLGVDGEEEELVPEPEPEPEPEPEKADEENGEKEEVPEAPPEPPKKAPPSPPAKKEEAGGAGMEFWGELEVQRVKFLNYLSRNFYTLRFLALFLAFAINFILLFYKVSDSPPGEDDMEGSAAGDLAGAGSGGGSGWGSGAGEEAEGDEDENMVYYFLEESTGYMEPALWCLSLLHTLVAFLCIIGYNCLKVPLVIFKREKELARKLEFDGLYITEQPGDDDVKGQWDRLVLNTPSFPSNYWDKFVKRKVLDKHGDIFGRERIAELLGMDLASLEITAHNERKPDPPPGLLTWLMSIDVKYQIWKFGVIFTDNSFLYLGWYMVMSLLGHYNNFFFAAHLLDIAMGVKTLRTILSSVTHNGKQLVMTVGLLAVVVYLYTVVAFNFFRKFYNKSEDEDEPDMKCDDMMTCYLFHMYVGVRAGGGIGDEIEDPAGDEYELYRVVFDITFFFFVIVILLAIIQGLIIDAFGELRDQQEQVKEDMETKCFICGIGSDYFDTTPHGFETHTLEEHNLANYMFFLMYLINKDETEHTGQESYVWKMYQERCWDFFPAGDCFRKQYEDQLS

[4] = biological target: T2, full length recombinant mouse RyR2 (mouse, UniProt E9Q401 1-4966); assay: pull-down; NeutrAvidin–agarose affinity chromatography: biotinylated Njun or scrambled Njun on the agarose, recombinant RyR or RyR1 fragments (isolated from HEK293) incubated overnight at 4°C in PBS plus 0.1% SDS; RyR detected with 34C or anti-GFP antibody; settings: both partners purified
T2 construct: ryanodine receptor 2 (RyR2), mouse, recombinant; Cell line of Koop et al., 2008; also called recombinant RyR2

[5] = biological target: T1, RyR1 purified from rabbit skeletal …; assay: cell-based or functional assay

Chain of RyR1 purified from rabbit skeletal muscle (rabbit) (P11716 whole entry): as above

open probability of purified RyR1 channels in lipid bilayers, 213 nM FLjun in the luminal solution, increase over control [1]: 1.9 fold
Molecule: full-length junctin isolated from rabbit skeletal muscle (natural protein)

binding result [4]: binds
open probability of purified RyR1 channels in lipid bilayers, 213 nM Njun in the cytoplasmic solution, increase over control [5]: 5 fold
B2: Njun peptide, N-terminal cytoplasmic domain of junctin (residues 1–22), biotinylated (peptide)
peptide: Biotin-MAEETKHGGHKNGRKGGLSQSS
notes: junctin, N-terminal cytoplasmic domain, residues 1-22; also called biotinylated Njun; junctin cytoplasmic domain; source: synthetic peptide

Continued, molecule first:

Molecule: C-terminal domain of canine junctin (amino acids 46–210), His6-tagged (domain or fragment)
open probability (Po) of purified RyR1 channels in lipid bilayers, 213 nM Cjun in the luminal solution, relative to control [2]: 0.68 of control

B1: Cjun KEKE motif peptide (canine), residues 84–105, biotinylated (peptide)
peptide: Biotin-KRKTKAKVKELTKEELKKEKEK
notes: junctin, canine, KEKE motif, residues 84-105; also called canine KEKE peptide; KEKE peptide; source: synthetic peptide
binding result [3]: binds
